By Kd is commonly meant the concentration at which binding is half-saturated. Lower therefore signals a tighter complex.

Assay [1] concerns the target HLA-A*02:11. The experiment in a line: IEDB peptide-MHC binding, purified MHC/direct/fluorescence; filed as Kd, often an IC50 or EC50 that approximates it; ≥ and ≤ were set here for values at or beyond the usual limits of such assays. The following applies: source organism: Vibrio cholerae V52.
The target in assay [2] is HLA-A*02:16. Described as above. The following applies: source organism: Vibrio cholerae V52.
The target of assay [3] is HLA-A*02:19. The description is as above. To be noted: source organism: Vibrio cholerae V52.
For assay [4], the target named is HLA-A*23:01. The description is as above. The following applies: source organism: Vibrio cholerae V52.
For assay [5], the target named is HLA-A*24:03. Described as above. The following applies: source organism: Vibrio cholerae V52.
Assay [6] concerns the target HLA-A*68:02. Described as above. The following applies: source organism: Vibrio cholerae V52.
The target of assay [7] is HLA-B*18:01. The description is as above. The following applies: source organism: Vibrio cholerae V52.
Assay [8] has as its target HLA-B*27:03. The assay is described as above. To be noted: source organism: Vibrio cholerae V52.
Assay [9] deals with HLA-B*39:01. Described as above. The following applies: source organism: Vibrio cholerae V52.
In assay [10] the target is HLA-B*57:01. The description is as above. To be noted: source organism: Vibrio cholerae V52.
Assay [11] deals with HLA-A*01:01. The experiment in a line: IEDB peptide-MHC binding, purified MHC/competitive/fluorescence; filed as Kd, often an IC50 or EC50 that approximates it; ≥ and ≤ were set here for values at or beyond the usual limits of such assays. The following applies: source organism: Vibrio cholerae 2740-80.
For assay [12], the target named is HLA-A*11:01. The description is as above. To be noted: source organism: Vibrio cholerae 2740-80.
Assay [13] addresses HLA-A*30:01. The description is as above. The following applies: source organism: Vibrio cholerae 2740-80.
Assay [14] has as its target HLA-A*30:02. The assay is described as above. To be noted: source organism: Vibrio cholerae 2740-80.
Assay [15] concerns the target HLA-A*66:01. Described as above. The following applies: source organism: Vibrio cholerae 2740-80.
The target in assay [16] is HLA-B*07:02. Described as above. The following applies: source organism: Vibrio cholerae 2740-80.
Assay [17] addresses HLA-B*08:01. The assay is described as above. To be noted: source organism: Vibrio cholerae 2740-80.
Assay [18] addresses HLA-B*14:02. Described as above. To be noted: source organism: Vibrio cholerae 2740-80.
The target of assay [19] is HLA-B*27:05. The description is as above. To be noted: source organism: Vibrio cholerae 2740-80.
Assay [20] deals with HLA-B*40:01. Described as above. To be noted: source organism: Vibrio cholerae 2740-80.
Assay [21] concerns the target HLA-B*44:02. The assay is described as above. The following applies: source organism: Vibrio cholerae 2740-80.
Assay [22] concerns the target HLA-B*51:01. Described as above. To be noted: source organism: Vibrio cholerae 2740-80.
For assay [23], the target named is HLA-B*53:01. Described as above. The following applies: source organism: Vibrio cholerae 2740-80.
Assay [24] addresses HLA-B*58:01. Described as above. To be noted: source organism: Vibrio cholerae 2740-80.

For MGMEQTMSV, the Kd in assay [1] is at least 20 µM; in assay [2] it was at least 20 µM; in assay [3], at least 20 µM; in [4] it was at least 20 µM; in assay [5], at least 20 µM; in assay [6], at most 0.001 µM. The Kd in assay [7] is at least 20 µM; in assay [8] it was at least 20 µM; in assay [9] it was at least 20 µM; in assay [10] it was at least 20 µM; in assay [11] it was at least 5 µM; in assay [12], at least 5 µM. In addition, the Kd in [13], in assay [14], in [15], in assay [16], in assay [17] and in assay [18] was at least 5 µM in each case. For the same sequence, the dissociation constant (Kd) in assay [19], in [20], in assay [21], in assay [22], in assay [23] and in [24] was at least 5 µM in each case.

Values taken from the Immune Epitope Database (IEDB).
